Results reported in publication PMC4072508, “Genome-Wide Prediction and Validation of Peptides That Bind Human Prosurvival Bcl-2 Proteins” (PLoS Computational Biology, 2014).

B1: EVI5 (peptide)
chain: PHQFDGVPDKLIQALYQVKYNSKKMK
B2: RP1L1 (peptide)
chain: HRNTRNLAAFDGKASDLLRFPVKQLY
B3: MAST1 (peptide)
chain: DGVLSFIHHQIIELARDCLTKSRDGL
B4: RP1L1 (peptide)
chain: HRNTRNLAAFLGKASDLLRFPVKQLY
B5: ANKRD11 (peptide)
chain: NRGYYDVAKQLLAAGAEVNTKGLDDD
B6: RIMBP3 (peptide)
chain: RAELTGLARRDADRARKLQETNLRAV
B7: DNAH1 (peptide)
chain: EMNLQDHIESISKVAEVAGKEYAIEQ
B8: PLXNA4 (peptide)
chain: GHIYLGAVNRIYKLSSDLKVLVTHET
B9: PANK2 (peptide)
chain: FLRINTIAMRLLAYALDYWSKGQLKA
B10: MURC (peptide)
chain: GERLRQSGERLRQSGERFKKSISNAA
B11: TTC31 (peptide)
chain: DLSSTFVSLADRKVGDWPLSARREKG
B12: IFFO2 (peptide)
chain: RMNLQTMVDTLQEAAQEADAIQEEMN
B13: TRIM40 (peptide)
chain: VTQLRSLVIDLERTAKELDTNTLKNA
B14: AZIN1 (peptide)
chain: FGTTLKNCRHLLECAKELDVQIIGVK
B15: SCARB2 (peptide)
chain: FVDINPLTGIILKAAKRFQINIYVKK
B16: PPL (peptide)
chain: NKELSELIEQLQKNADQVEKNIVDTE
B17: NBEAL2 (peptide)
chain: EVRSSQFARKLWRSLRRISQVSSGET
B18: ANGPTL4 (peptide)
chain: WDEMNVLAHGLLQLGQGLREHAERTR
B19: INADL (peptide)
chain: GFANHDVVEVDRNAGQVVHLTLVRRK
B20: PAXIP1 (peptide)
chain: PVQVQQYIKKLYILGGEVAESAQKCT
B21: FAHD1 (peptide)
chain: MDYVGGYALCLDMTARDVQDECKKKG
B22: TTN (peptide)
chain: VENTTDLASILIKDADRLNSGCYELK
B23: CACNA1G (peptide)
chain: VYILRKAARRLAQVLRAAGVRVGLLS
B24: FIGN (peptide)
chain: DISALTASNLDKKYAEKYSGILEGPV
B25: XXXX (peptide)
chain: VGNVDECGKKLVEVARRCRDEAIAAC
B26: NLRP1 (peptide)
chain: LKELDLSGNSDSHSAVKSLCKTLRRP
B27: TTC23 (peptide)
chain: LTKAERLSKELLQCGRIIKEEWIEIE
B28: FHOD3 (peptide)
chain: LSSISELSARLHLWAFKMDYETTEKE
B29: TUBB4Q (peptide)
chain: FTGNNTAVQEDKRVSEQFTATFRRKA
B30: CHMP1A (peptide)
chain: LFQLKFTAKQLEKLAKKAEKDSKAEQ
B31: RNF123 (peptide)
chain: FSEFIGMIQEIQQAAERLERNFVDSR
B32: GRIPAP1 (peptide)
chain: RTNNYQLSDEDRKNGVELTSLRQKVA
B33: MYPN (peptide)
chain: KVFLNKAADFIEELSSLFKSHSSKRI
B34: FOLH1B (peptide)
chain: PFDCRDYAVVDRKYADKIYNISMKHP
B35: BLOC1S2 (peptide)
chain: VAALEQAAYKLDAYSKKLEAKYKKLE
B36: C3orf15 (peptide)
chain: RAEIEKMAEKINDIAYEMESRRTYLQ
B37: EVI5 (peptide)
chain: PHQFDGVPDKLIQAAYQVKYNSKKMK
B38: APOA4 (peptide)
chain: VPFATELHERLAKDSEKLKEEIGKEL
B39: BRPF3 (peptide)
chain: DTIFHRAAVRLRDLLGAILRHARRQA
B40: DNAH3 (peptide)
chain: TEEMKHNVEKLNELSKNLNRAFAEFE
B41: ANGPTL3 (peptide)
chain: LDDVKILANGLLQLGHGLKDFVHKTK
B42: MYH6 (peptide)
chain: SRELEEISERLEEAGGATSVQIEMNK
B43: TAF1 (peptide)
chain: EGTKIVLGKQDIESADEVRRKSLVLK
B44: DBC1 (peptide)
chain: RQKIQRTARKLFGLSVRCRHNPNHQL
B45: TCP11L2 (peptide)
chain: TGGLPELASRLTRISAVLLEGMNKET
B46: CASKIN2 (peptide)
chain: KNGHREVIRQLLRAGIEINRQTKTGT
B47: WDR24 (peptide)
chain: QGDVQMAVSVLIVLGERVRKDIDEQT
B48: GH2 (peptide)
chain: FDNAMLRARRLYQLAYDTYQEFEEAY
B49: ABCD4 (peptide)
chain: SQDVERFCRQLSSMASKLIISPFTLV
B50: RIOK2 (peptide)
chain: NEEGQQFALKLHRLGRTSFRNLKNKR
B51: MAGEB2 (peptide)
chain: IKKSVTKGEMLKIVLKRFREHFPEIL
B52: CCNH (peptide)
chain: RYPILENPEILRKTLDDFLNRIALTD
B53: DPF3 (peptide)
chain: SCMATVIHNPLKALLDQFYKEAIEHC
B54: LYZ (peptide)
chain: VFERCELARTLKRLLMDGYRGISLAN
B55: NBEAL2 (peptide)
chain: EVRSSQFARKLWRSSRRISQVSSGET

Target: Bcl-xL, Q07817
Sequence (Q07817 1-209): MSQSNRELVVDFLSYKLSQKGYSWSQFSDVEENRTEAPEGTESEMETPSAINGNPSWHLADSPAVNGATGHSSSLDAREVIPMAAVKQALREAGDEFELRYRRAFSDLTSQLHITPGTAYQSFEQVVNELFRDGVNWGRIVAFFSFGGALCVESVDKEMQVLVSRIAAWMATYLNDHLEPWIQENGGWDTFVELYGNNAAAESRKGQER
Assay: peptide SPOT array, c-Myc-tagged receptor at 1 uM or 100 nM, anti-c-Myc-Cy3

Row | SPOT signal as a fraction of Bim BH3's signal on the same receptor and array | Binder
1 | 0.48 | B1
2 | 1.4 | B2
3 | 0.03 | B3
4 | 0.91 | B4
5 | 0.03 | B5
6 | 0.51 | B6
7 | 0.02 | B7
8 | 0.08 | B8
9 | 0.19 | B9
10 | 0.44 | B10
11 | 0.21 | B11
12 | 0.02 | B12
13 | 0.03 | B13
14 | 0.03 | B14
15 | 0.16 | B15
16 | 0.03 | B16
17 | 0.62 | B17
18 | 0.04 | B18
19 | 0.08 | B19
20 | 0.05 | B20
21 | 0.03 | B21
22 | 0.02 | B22
23 | 0.67 | B23
24 | 0.02 | B24
25 | 0.02 | B25
26 | 0.22 | B26
27 | 0.03 | B27
28 | 0.03 | B28

Row | SPOT signal as a fraction of Bim BH3's signal on the same receptor and array | Binder
29 | 0.41 | B29
30 | 0.18 | B30
31 | 0.03 | B31
32 | 0.05 | B32
33 | 0.13 | B33
34 | 0.36 | B34
35 | 0.25 | B35
36 | 0.03 | B36
37 | 0.69 | B37
38 | 0.02 | B38
39 | 0.55 | B39
40 | 0.02 | B40
41 | 0.04 | B41
42 | 0.02 | B42
43 | 0.05 | B43
44 | 0.69 | B44
45 | 0.03 | B45
46 | 0.23 | B46
47 | 0.02 | B47
48 | 0.04 | B48
49 | 0.05 | B49
50 | 0.95 | B50
51 | 0.2 | B51
52 | 0.02 | B52
53 | 0.03 | B53
54 | 0.42 | B54
55 | 0.86 | B55
